B1: CPEB3 Ribozyme (parent)
chain: GGGGGCCACAGCAGAAGCGUUCACGUCGCGGCCCCUGUCAGAUUCUGGUGAAUCUGCGAAUUCUGCUGU

Variants of: B1
Test: self-cleavage, relative activity (ratio to wild type); higher = more cleavage; co-transcriptional

| Variant | self-cleavage |
| --- | --- |
| GGGGGCCACAGCAGAAGGGUUCACGUCGCGGCCCCUGUCAGAUUCUGGUGAAUCUGCGAGUUCUGCUGU | 0.137 |
| GGGGGCCACAGCAGAAGGGUUCACGUCGCGGCCCCUGUCAGAUUCUGGUGAAUCUGCGAUUUCUGCUGU | 0.154 |
| GGGGGCCACAGCAGAAGGGUUCACGUCGCGGCCCCUGUCAGAUUCUGGUGAAUCUGCGACUUCUGCUGU | 0.0758 |
| GGGGGCCACAGCAGAAGAGUUCACGUCGCGGCCCCUGUCAGAUUCUGGGGAAUCUGCGAAUUCUGCUGU | 0.259 |
| GGGGGCCACAGCAGAAGGGUUCCCGUCGCGGCCCCUGUCAGAUUCUGGUGAAUCUGCGAAUUCUGCUGU | 0.187 |
| GGGGGCCACAGCAGAAGGGUUCACGUCGCGGCCCCUGUCUGAUUCUGGUGAAUCUGCGAAUUCUGCUGU | 0.167 |
| GGGGGCCACAGCAGAAGGGUUCACGUCGCGGCCCCUGUCCGAUUCUGGUGAAUCUGCGAAUUCUGCUGU | 0.152 |
| GGGGGCCACAGCAGAAGAGUUCACGUCGCGGCCCCUGACAGAUUCUGGUGAAUCUGCGAAUUCUGCUGU | 0.0704 |
| GGGGGCCACAGCAGAAGAGUUCACGUCGCGGCCCCUGCCAGAUUCUGGUGAAUCUGCGAAUUCUGCUGU | 0.0484 |
| GGGGGCCACAGCAGAAGAGUUCACGUCGCGGCCCCUGUCAGAUUCUGGUGAAUCUCCGAAUUCUGCUGU | 0.186 |
| GGGGGCCACAGCAGAAGAGUUCACGUCGCGGCCCCCGUCAGAUUCUGGUGAAUCUGCGAAUUCUGCUGU | 0.142 |
| GGGGGCCACAGCAGAAGAGUUCACGUCGCGGCCCCAGUCAGAUUCUGGUGAAUCUGCGAAUUCUGCUGU | 0.182 |
| GGGGGCCACAGCAGAAGAGUUCACGUCGCUGCCCCUGUCAGAUUCUGGUGAAUCUGCGAAUUCUGCUGU | 0.132 |
| GGGGGCCACAGCAGAAGAGUUCACGUCGCGGCCCCUGUCAGAUUCUGGUGAAUCUGCGAAUUCUGCUAU | 0.357 |
| GGGGGCCACAGCAGAAGAGUUCACGUCGCGGCCCCUGUCAGAUUCUGGUGAAUCUGCGAAUUCUGCUCU | 0.28 |
| GGGGGCCACAGCAGAAGGGUUGACGUCGCGGCCCCUGUCAGAUUCUGGUGAAUCUGCGAAUUCUGCUGU | 0.236 |
| GGGGGCCACAGCAGAAGGGUUAACGUCGCGGCCCCUGUCAGAUUCUGGUGAAUCUGCGAAUUCUGCUGU | 0.179 |
| GGGGGCCACAGCAGAAGAGUUCACGUCGCGGCCCCUGUCAGAUUCUGGUGAACCUGCGAAUUCUGCUGU | 0.169 |
| GGGGGCCACAGCAGAAGAGUUCACGUCGCGGCCCCUGUCAGAUGCUGGUGAAUCUGCGAAUUCUGCUGU | 0.123 |
| GGGGGCCACAGCAGAAGAGUUCACGUCGCGGCCCCUGUCAGAUACUGGUGAAUCUGCGAAUUCUGCUGU | 0.185 |

| Variant | self-cleavage |
| --- | --- |
| GGGGGCCACAGCAGAAGAGUUCACGUCGCGGCCCCUGUCAGAUUCUGUUGAAUCUGCGAAUUCUGCUGU | 0.186 |
| GGGGGCCACAGCAGAAGAGUUCACGUCGCGGCCCCUAUCAGAUUCUGGUGAAUCUGCGAAUUCUGCUGU | 0.14 |
| GGGGGCCACAGCAGAAGAGUUCACGUCGCGGCCCCUUUCAGAUUCUGGUGAAUCUGCGAAUUCUGCUGU | 0.121 |
| GGGGGCCACAGCAGAAGAGUUCACGACGCGGCCCCUGUCAGAUUCUGGUGAAUCUGCGAAUUCUGCUGU | 0.128 |
| GGGGGCCACAGCAGAAGAGUUCACGUCGCGGCCCCUGUCAGAUUCUGGUUAAUCUGCGAAUUCUGCUGU | 0.284 |
| GGGGGCCACAGCAGAAGAGUUCACGUCGCGGCCCCUGUCAGAUUCUGGUAAAUCUGCGAAUUCUGCUGU | 0.191 |
| GGGGGCCACAGCAGAAGAGUUCACGUCGCGGCCCCUGUCAGAUUCUGGUCAAUCUGCGAAUUCUGCUGU | 0.208 |
| GGGGGCCACAGCAGAAGAGUUCACGUCGCGGCCCCUGUCAGAUUCUGGUGAAUCUGCGAAUUCUACUGU | 0.148 |
| GGGGGCCACAGCAGAAGAGUUCACGUCGCGGCCCCUGUCAGAUUCUGGUGAAUCUGCGAAUUCUUCUGU | 0.102 |
| GGGGGCCACAGCAGAAGGGUUCACGUCGCGGCACCUGUCAGAUUCUGGUGAAUCUGCGAAUUCUGCUGU | 0.193 |
| GGGGGCCACAGCAGAAGGGUUCACGUCGCGGCGCCUGUCAGAUUCUGGUGAAUCUGCGAAUUCUGCUGU | 0.147 |
| GGGGGCCACAGCAGAAGGGUUCACGUCGCGGCUCCUGUCAGAUUCUGGUGAAUCUGCGAAUUCUGCUGU | 0.226 |
| GGGGGCCACAGCAGAAGAGUUCACGUCGCGCCCCCUGUCAGAUUCUGGUGAAUCUGCGAAUUCUGCUGU | 0.124 |
| GGGGGCCACAGCAGAAGAGUUCACGUCGCGACCCCUGUCAGAUUCUGGUGAAUCUGCGAAUUCUGCUGU | 0.187 |
| GGGGGCCACAGCAGAAGAGUUCACGUCGCGUCCCCUGUCAGAUUCUGGUGAAUCUGCGAAUUCUGCUGU | 0.129 |
| GGGGGCCACAGCAGAAGAGUUCACGUCGCGGCCCCUGUCAGAUUCUGGUGAAUCUGCGAAUUCUGCAGU | 0.268 |
| GGGGGCCACAGCAGAAGAGUUCACGUCGCGGCCCCUGUCAGAUUCUGGUGAAUCUGCGAAUUCUGCGGU | 0.348 |
| GGGGGCCACAGCAGAAGAGUUCACGUCGCGGCCCCUGUCAGAUUCUGGUGAAUCUGCGAAUUCUGCCGU | 0.23 |
| GGGGGCCACAGCAGAAGGGUUCACGUGGCGGCCCCUGUCAGAUUCUGGUGAAUCUGCGAAUUCUGCUGU | 0.224 |
